T1: B. lentus protease having SEQ ID NO: 2 (Savinase) (Bacillus lentus, UniProt P29600 1-269)
T1 sequence: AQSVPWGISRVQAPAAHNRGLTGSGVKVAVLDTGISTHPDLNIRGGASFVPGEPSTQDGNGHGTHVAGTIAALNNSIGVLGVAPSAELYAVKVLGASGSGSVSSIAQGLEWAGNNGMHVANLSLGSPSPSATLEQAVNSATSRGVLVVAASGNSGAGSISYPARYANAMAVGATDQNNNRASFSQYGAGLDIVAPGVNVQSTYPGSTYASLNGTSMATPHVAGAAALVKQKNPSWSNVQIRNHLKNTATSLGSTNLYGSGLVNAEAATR


How the values were obtained:
[1] = biological target: B. lentus protease variant having the amino acid sequence of SEQ ID NO: 2 with the substitutions S9E N43R N76D V205I Q206L Y209W S259D N261W L262E (Bacillus lentus), P29600; assay: cell-based or functional assay
[2] = biological target: T1, B. lentus protease having SEQ ID NO: 2 …; assay: cell-based or functional assay

pH value at which the released protease activity peaks [1] [pH] | pH value at which the released protease activity peaks [2] [pH] | Binder
3.5 to 4 | – | CI-2A variant (CI08) K21H+P25S+E26H+K30H+E33H (protein) HNLHTEWSHLVGHSVHEAKKVILQDKPEAQIIVLPVGTIVTMEYRIDRVRLFVDKLDNIAQVPRVG
3.5 to 4 | – | CI-2A variant (CI10) K30H+E33H+K43H+P44A+P52A, P01053 19-84 (protein) HNLKTEWPELVGHSVHEAKKVILQDHAEAQIIVLAVGTIVTMEYRIDRVRLFVDKLDNIAQVPRVG
3 | ~3.5 | CI-2A wildtype having the amino acid sequence of the mature protein of SEQ ID NO:1 (barley chymotrypsin inhibitor 2a) (other) HNLKTEWPELVGKSVEEAKKVILQDKPEAQIIVLPVGTIVTMEYRIDRVRLFVDKLDNIAQVPRVG

Source: patent publication US20210380667A1 (NOVOZYMES A S, published 2021)
